B1: GtaB (Bacillus subtilis subsp. subtilis str. 168) (protein)
chain: MKKVRKAIIPAAGLGTRFLPATKAMPKEMLPIVDKPTIQYIIEEAVEAGIEDIIIVTGKSKRAIEDHFDYSPELERNLEEKGKTELLEKVKKASNLADIHYIRQKEPKGLGHAVWCARNFIGDEPFAVLLGDDIVQAETPGLRQLMDEYEKTLSSIIGVQQVPEEETHRYGIIDPLTSEGRRYQVKNFVEKPPKGTAPSNLAILGRYVFTPEIFMYLEEQQVGAGGEIQLTDAIQKLNEIQRVFAYDFEGKRYDVGEKLGFITTTLEFAMQDKELRDQLVPFMEGLLNKEEI
notes: full-length, C-terminal His-tag cleaved off with thrombin (pET28b-gtaB-cHis), E. coli BL21(DE3)
B2: YngB (Bacillus subtilis subsp. subtilis str. 168) (protein)
chain: MRKKVRKAVIPAAGLGTRFLPATKAQPKEMLPIVDKPAIQYIVEEAAESGIEDILIITGRNKRSIEDHFDRSAELEFNLREKGKTETLKEMQQIADLANIHYIRQKEPLGLGHAVLCAEHFIGDEPFAVLLGDDIMVSETPALRQLMDVYDVYGTEVVGVQSVLPEDVSKYGIINTSGSQGHVYEVNDLVEKPSPEEAPSEIAVMGRYVLNSSIFSVLKTIGRGAGNEIQLTDALREVCRKEPIHARLLEGNRYDIGDKLGCFKASTEIGLMRPEMRSQLLAYLEDVIKRETKEMLR
notes: full-length, C-terminal His-tag kept (pET28b-yngB-cHis), E. coli BL21(DE3); native (Met) protein in kinetics; dimer in crystal

Columns and labels:
[1] = substrate: O=P(O)(O)O[C@H]1O[C@H](CO)[C@@H](O)[C@H](O)[C@H]1O; assay: purified protein; format: biochemical, Bacillus subtilis; conditions: 200 μM UTP, MgCl2 10 mg/ml (so in the source), 50 mM Tris pH 7.5, 500 mM NaCl, 5% glycerol, RT
[2] = substrate: O=c1ccn([C@@H]2O[C@H](COP(=O)(O)OP(=O)(O)OP(=O)(O)O)[C@@H](O)[C@H]2O)c(=O)[nH]1; assay: purified protein; format: biochemical, Bacillus subtilis; conditions: 200 μM Glc-1-P, MgCl2 10 mg/ml (so in the source), 50 mM Tris pH 7.5, 500 mM NaCl, 5% glycerol, RT

Row | Protein | Km [1] | kcat [1] | Km [2] | kcat [2]
1 | B1 | 45.6 ± 3.24 µM | 1.06 s⁻¹ | 49.5 ± 10.2 µM | 1.04 s⁻¹
2 | B2 | 42.1 ± 20.2 µM | 0.264 s⁻¹ | 62.9 ± 13.8 µM | 0.293 s⁻¹

Reference: paper PMC7961091, “Bacillus subtilis YngB contributes to wall teichoic acid glucosylation and glycolipid formation during anaerobic growth” (The Journal of Biological Chemistry, 2021)
